Like-named read-outs stand apart in the source and are kept apart here.
Tests used:
Assay in all cases: SPR
FcgRIIa R [1] = target: T1, FcgRIIa R (human, UniProt P12318)
T1 chain: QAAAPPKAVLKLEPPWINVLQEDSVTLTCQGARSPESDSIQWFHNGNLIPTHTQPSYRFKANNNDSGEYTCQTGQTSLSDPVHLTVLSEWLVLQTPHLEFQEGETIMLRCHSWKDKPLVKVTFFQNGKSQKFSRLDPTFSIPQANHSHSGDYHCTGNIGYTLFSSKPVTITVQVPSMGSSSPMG

FcgRIIa H [2] = target: T2, FcgRIIa H (human, UniProt P12318)
T2 chain: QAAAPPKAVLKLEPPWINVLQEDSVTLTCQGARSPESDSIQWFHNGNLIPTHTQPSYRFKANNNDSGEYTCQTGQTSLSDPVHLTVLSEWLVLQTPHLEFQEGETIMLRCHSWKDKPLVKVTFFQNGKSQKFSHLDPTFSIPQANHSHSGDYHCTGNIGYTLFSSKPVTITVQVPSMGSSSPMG

FcgRIIIa V [3] = target: T3, FcgRIIIa V (human, UniProt P08637)
FcgRIIIa V [4] = target: T3, FcgRIIIa V; remark: listed apart in the source
FcgRIIa H [5] = target: T2, FcgRIIa H
FcgRIIb [6] = target: T4, FcgRIIb (human, UniProt P31994)
T4 chain: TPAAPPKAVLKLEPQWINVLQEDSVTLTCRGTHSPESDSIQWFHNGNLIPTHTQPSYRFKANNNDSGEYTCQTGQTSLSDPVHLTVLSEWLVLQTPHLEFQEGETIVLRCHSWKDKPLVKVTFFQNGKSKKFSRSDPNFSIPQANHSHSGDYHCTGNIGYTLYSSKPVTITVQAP

FcgRIIa H [7] = target: T2, FcgRIIa H
FcgRIIIa V [8] = target: T3, FcgRIIIa V; remark: listed apart in the source
FcgRIIIa V [9] = target: T3, FcgRIIIa V; remark: listed apart in the source
FcgRIIa H [10] = target: T2, FcgRIIa H
FcgRIIIa F [11] = target: T5, FcgRIIIa F (human, UniProt P08637)
FcgRIa [12] = target: T6, FcgRIa (human, UniProt P12314)
T6 chain: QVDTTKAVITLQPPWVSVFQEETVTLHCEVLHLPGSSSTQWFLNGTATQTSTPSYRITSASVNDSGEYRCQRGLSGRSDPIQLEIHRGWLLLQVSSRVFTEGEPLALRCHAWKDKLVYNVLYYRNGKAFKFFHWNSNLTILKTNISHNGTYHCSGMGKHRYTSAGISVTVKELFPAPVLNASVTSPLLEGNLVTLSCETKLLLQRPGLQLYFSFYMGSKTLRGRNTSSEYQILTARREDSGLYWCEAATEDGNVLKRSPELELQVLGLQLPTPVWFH

FcgRIa [13] = target: T6, FcgRIa
FcgRIIIa F [14] = target: T5, FcgRIIIa F; remark: listed apart in the source
FcgRIIb [15] = target: T4, FcgRIIb
FcgRIIa R [16] = target: T1, FcgRIIa R
FcgRIIIa F [17] = target: T5, FcgRIIIa F; remark: listed apart in the source
FcgRIa [18] = target: T6, FcgRIa
FcgRIIa R [19] = target: T1, FcgRIIa R
FcgRIIb [20] = target: T4, FcgRIIb
FcgRIIa R [21] = target: T1, FcgRIIa R

T5 sequence (P08637 17-208): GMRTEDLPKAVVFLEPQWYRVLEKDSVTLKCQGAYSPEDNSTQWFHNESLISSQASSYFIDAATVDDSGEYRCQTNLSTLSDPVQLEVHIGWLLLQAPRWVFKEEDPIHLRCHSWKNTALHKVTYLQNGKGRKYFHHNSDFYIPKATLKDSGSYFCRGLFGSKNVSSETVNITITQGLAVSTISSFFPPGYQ
T3 sequence (P08637 17-208 F176V): as the sequence (P08637 17-208) above, with F160V counted along it

B1: IL6R-BP208/IL6R-L (antibody)
chain 1: QVQLQESGPGLVKPSETLSLTCAVSGHSISHDHAWSWVRQPPGEGLEWIGFISYSGITNYNPSLQGRVTISRDNSKNTLYLQMNSLRAEDTAVYYCARSLARTTAMDYWGEGTLVTVSSASTKGPSVFPLAPSSKSTSGGTAALGCLVKDYFPEPVTVSWNSGALTSGVHTFPAVLQSSGLYSLSSVVTVPSSSLGTQTYICNVNHKPSNTKVDKKVEPKSCDKTHTCPPCPAPDLLGDDSVFLFPPKPKDTLMISRTPEVTCVVVDVSDEDGEVKFNWYVDGVEVHNAKTKPREEQYNSTYRVVSVLTVLHQDWLNGKEYKCKVSNKALPRPIEKTISKAKGQPREPQVYTLPPSRDELTKNQVSLTCLVKGFYPSDIAVEWESNGQPENNYKTTPPVLDSDGSFFLYSKLTVDKSRWQQGNVFSCSVMHEALHNHYTQESLSLSP
chain 2: not shown
- Kd (FcgRIIa R [1]): 850 nM
- Kd (FcgRIIa H [2]): 8300 nM
- Kd (FcgRIIIa V [3]): 53000 nM

B2: H240-Kn120/H240-Hl068/L73-k0 (antibody)
chain 1: QDQLVQSGAEVKKPGASVKVSCKASGFNIKDTYIQWVRQAPGQGLEWMGRIDPLRKQTKYREKFEGRVTITADTSTNTAYMELSSLRSEDTAVYYCVRSGREFDYWGQGTLVTVSSASTKGPSVFPLAPSSKSTSGGTAALGCLVKDYFPEPVTVSWNSGALTSGVHTFPAVLQSSGLYSLSSVVTVPSSSLGTQTYICNVNHKPSNTKVDKKVEPKSCDKTHTCPPCPAPEYYWGPMVFLFPPKPKDTLMISRTPEVTCVVVDVSDEDPEVKFNWYVDGVEVHNAKTKPREEQYNATYRVVSVLTVLHQDWLNGKEYKCKVSNKDLPAPIEKTISKAKGQPREPQVCTLPPSRDELTKNQVSLWCLVKGFYPSDIAVEWESNGQPENNYKTTPPVLDSDGSFFLYSKLTVDKSRWQQGNVFSCSVMHEALHNHYTQKSLSLSP
chain 2: QDQLVQSGAEVKKPGASVKVSCKASGFNIKDTYIQWVRQAPGQGLEWMGRIDPLRKQTKYREKFEGRVTITADTSTNTAYMELSSLRSEDTAVYYCVRSGREFDYWGQGTLVTVSSASTKGPSVFPLAPSSKSTSGGTAALGCLVKDYFPEPVTVSWNSGALTSGVHTFPAVLQSSGLYSLSSVVTVPSSSLGTQTYICNVNHKPSNTKVDKKVEPKSCDKTHTCPPCPAPELLGGPSVFLFPPKPKDTLMISRTPEVTCVVVDVSHEEPEVKFNWYVDGVEVHNAKTKPREEQYNSTYRVVSVLTVLHQDWLNGKEYKCKVSNDALPKPIEETISKAKGQPREPQVYTLPPSRCELTKNQVSLSCAVKGFYPSDIAVEWESNGQPENNYKTTPPVLDSDGSFFLVSKLTVDKSRWQQGNVFSCSVMHEALHNHYTQKSLSLSP
chain 3: DIQMTQSPSSLSASVGDRVTITCRASQDIHKYIAWYQQKPGQAPRLLIQYTSTLQPGVPSRFSGSGSGTDYTFTISSLQPEDIATYYCLQYEQLRTFGGGTKVEIKRTVAAPSVFIFPPSDEQLKSGTASVVCLLNNFYPREAKVQWKVDNALQSGNSQESVTEQDSKDSTYSLSSTLTLSKADYEKHKVYACEVTHQGLSSPVTKSFNRGEC
- Kd (FcgRIIIa V [4]): 0.36 nM
- Kd (FcgRIIa H [5]): 41 nM
- Kd (FcgRIIb [6]): 150 nM
- Kd (FcgRIIa H [7]): 44 nM
- Kd (FcgRIIIa V [8]): 0.33 nM
- Kd (FcgRIIIa V [9]): 0.66 nM
- Kd (FcgRIIa H [10]): 59 nM
- Kd (FcgRIIIa F [11]): 2.4 nM
- Kd (FcgRIa [12]): 0.11 nM
- Kd (FcgRIa [13]): 0.37 nM
- Kd (FcgRIIIa F [14]): 2.4 nM
- Kd (FcgRIIb [15]): 150 nM
- Kd (FcgRIIa R [16]): 20 nM
- Kd (FcgRIIIa F [17]): 2.2 nM
- Kd (FcgRIa [18]): 0.16 nM
- Kd (FcgRIIa R [19]): 17 nM
- Kd (FcgRIIb [20]): 150 nM
- Kd (FcgRIIa R [21]): 23 nM

B3: H240-Kn037/H240-Hl036/L73-k0 (antibody)
chain 1: QDQLVQSGAEVKKPGASVKVSCKASGFNIKDTYIQWVRQAPGQGLEWMGRIDPLRKQTKYREKFEGRVTITADTSTNTAYMELSSLRSEDTAVYYCVRSGREFDYWGQGTLVTVSSASTKGPSVFPLAPSSKSTSGGTAALGCLVKDYFPEPVTVSWNSGALTSGVHTFPAVLQSSGLYSLSSVVTVPSSSLGTQTYICNVNHKPSNTKVDKKVEPKSCDKTHTCPPCPAPELLAGPDVFLFPPKPKDTLMISRTPEVTCVVVDVSHEDPEVKFNWYVDGVEVHNAKTKPREEQYNSTYRVVSVLTVLHQDWLNGKEYKCKVSNKALPAPEEKTISKAKGQPREPQVCTLPPSRDELTKNQVSLWCLVKGFYPSDIAVEWESNGQPENNYKTTPPVLDSDGSFFLYSKLTVDKSRWQQGNVFSCSVMHEALHNHYTQKSLSLSP
chain 2: QDQLVQSGAEVKKPGASVKVSCKASGFNIKDTYIQWVRQAPGQGLEWMGRIDPLRKQTKYREKFEGRVTITADTSTNTAYMELSSLRSEDTAVYYCVRSGREFDYWGQGTLVTVSSASTKGPSVFPLAPSSKSTSGGTAALGCLVKDYFPEPVTVSWNSGALTSGVHTFPAVLQSSGLYSLSSVVTVPSSSLGTQTYICNVNHKPSNTKVDKKVEPKSCDKTHTCPPCPAPELLAGPDVFLFPPKPKDTLMISRTPEVTCVVVDVSHEDPEVKFNWYVDGVEVHNAKTKPREEQYNSTYRVVSVLTVLHQDWLNGKEYKCKVSNKALPAPEEKTISKAKGQPREPQVYTLPPSRCELTKNQVSLSCAVKGFYPSDIAVEWESNGQPENNYKTTPPVLDSDGSFFLVSKLTVDKSRWQQGNVFSCSVMHEALHNHYTQKSLSLSP
chain 3: DIQMTQSPSSLSASVGDRVTITCRASQDIHKYIAWYQQKPGQAPRLLIQYTSTLQPGVPSRFSGSGSGTDYTFTISSLQPEDIATYYCLQYEQLRTFGGGTKVEIKRTVAAPSVFIFPPSDEQLKSGTASVVCLLNNFYPREAKVQWKVDNALQSGNSQESVTEQDSKDSTYSLSSTLTLSKADYEKHKVYACEVTHQGLSSPVTKSFNRGEC
- Kd (FcgRIIIa V [9]): 6.8 nM
- Kd (FcgRIIa H [10]): 46 nM
- Kd (FcgRIa [13]): 0.098 nM
- Kd (FcgRIIIa F [14]): 21 nM
- Kd (FcgRIIa R [19]): 29 nM
- Kd (FcgRIIb [20]): 380 nM

Source: patent US10766960 (dated 2020)
